{"source": "patent US20230125561A1", "target": "SARS-CoV-2 Spike S1 protein, B.1.1.7 (UK (Kent)) variant (SARS-CoV-2) (UniProt P0DTC2)", "experiment": "ELISA", "settings": "designed binder", "data": [{"substance": "Neumifil (HEX17: trimeric (hexavalent) form based on S. pneumoniae CBM40)", "values": [{"measurement": "EC50", "value": 0.137, "unit": "µg/mL"}]}]}
